We go through 21 compounds from patent publication US20080207668A1, “PHARMACEUTICAL COMPOSITIONS OF HYD[…] PREVENTION OF OVERDOSE OR ABUSE” (New River Pharmaceuticals Inc., priority 2006, published 2008).

Each structure is given as a SMILES string. Counter-ions that a name gives are not always drawn. Residues, ends and D or L forms follow the SMILES beside them. *: point of attachment. X5 = CC(=O)Oc1ccc2c3c1O[C@H]1C(O*)=CC[C@H]4[C@@H](C2)N(C)CC[C@]314; X2 = CN1CC[C@]23c4c5ccc(O)c4O[C@H]2C(O*)=CC[C@H]3[C@H]1C5

The nature of data set [1]: Intranasal bioavailability of hydromorphone conjugates (plasma hydromorphone after intranasal dosing). To be noted: rat, relative to hydromorphone control. The data set is classed as in vivo, male Sprague-Dawley rats. The procedure:
Oral, and intranasal bioavailability studies of hydromorphone and hydromorphone conjugates were conducted in male Sprague-Dawley rats. Doses of hydromorphone hydrochloride and hydromorphone conjugates containing equivalent amounts of hydromorphone were administered in deionized water. Oral administration was in 0.5 ml by gavage needle. Intranasal doses were administered by placing 20 microliters into the nasal flares of rats anesthetized with isoflurane. Plasma was collected by retroorbital sinus puncture under isoflurane anesthesia. hydromorphone were determined by LC/MS/MS.
Male Sprague-Dawley rats were provided water ad libitum and doses were administered by placing 0.02 ml of water containing hydromorphone conjugates or hydromorphone […] into the nasal flares. All doses contained equivalent amounts of hydromorphone base. Plasma hydromorphone concentrations were measured by ELISA (hydromorphone, 102919, Neogen, Corporation, Lexington, Ky.) and/or LC/MS. The assay is specific for hydromorphone. These examples illustrate that hydromorphone conjugates decrease the peak level (Cmax) and total absorption (AUC) of hydromorphone as compared to those produced by equimolar (hydromorphone base) doses of hydromorphone HCl when given by the intranasal route of administration.
The following Tables include Hydromorphone amino acid and peptide HCl salt conjugates that were synthesized and tested. Both oral and intranasal bioavailabilities were measured. The bold values are the “corrected values”, that were calculated based on the bioavailability of the control (HM).

The nature of data set [2]: Oral bioavailability of hydromorphone conjugates (plasma hydromorphone after oral gavage). To be noted: rat, relative to hydromorphone control.

Turning to `CN1CC[C@]23c4c5ccc(O)c4O[C@H]2C(OC(=O)[C@H](Cc2ccccc2)NC(=O)[C@H](Cc2ccccc2)NC(=O)[C@H](Cc2ccccc2)NC(=O)[C@H](CCC(=O)O)NC(=O)[C@@H](N)CCC(=O)O)=CC[C@H]3[C@H]1C5` [EEFFF-HM, Glu2-Phe3-Hydromorphone.Dihydrochloride] (H-EEFFF-X2), in data set [1], the “IN AUC % (corrected value based on bioavailability of control HM)” value (“IN AUC %” below) was determined as 52% and the “IN Cmax % (corrected value based on control HM)” value (from here on “IN Cmax %”) is 57%. In data set [2], the “Oral AUC % (corrected value based on bioavailability of control HM)” value (“Oral AUC %” below) is recorded as 79% and the “Oral Cmax % (corrected value based on control HM)” value (“Oral Cmax %” below) came out at 78%.

Turning to `CC[C@H](C)[C@H](NC(=O)[C@H](CCC(=O)O)NC(=O)[C@@H](N)CCC(=O)O)C(=O)OC1=CC[C@H]2[C@H]3Cc4ccc(O)c5c4[C@@]2(CCN3C)[C@H]1O5` [EEI-HM], in data set [1], the “IN AUC %” value was 59% and the “IN Cmax %” value is 88%. For the same compound, in data set [2], the “Oral AUC %” value is 56% and the “Oral Cmax %” value stood at 73%.

Turning to `CC(C)C[C@H](NC(=O)[C@H](CCC(=O)O)NC(=O)[C@@H](N)CCC(=O)O)C(=O)OC1=CC[C@H]2[C@H]3Cc4ccc(O)c5c4[C@@]2(CCN3C)[C@H]1O5` [EEL-HM], in data set [1], the “IN AUC %” value is 84% and the “IN Cmax %” value is 98%. Further, in data set [2], the “Oral AUC %” value came out at 27% and the “Oral Cmax %” value amounted to 49%.

Take `CC(C)[C@H](NC(=O)[C@H](CCC(=O)O)NC(=O)[C@@H](N)CCC(=O)O)C(=O)OC1=CC[C@H]2[C@H]3Cc4ccc(O)c5c4[C@@]2(CCN3C)[C@H]1O5` [EEV-HM]: in data set [1], the “IN AUC %” value turned out to be 31% and the “IN Cmax %” value is 70%. Also, in data set [2], the “Oral AUC %” value was found to be 21% and the “Oral Cmax %” value is reported as 50%.

Take `CC[C@H](C)[C@H](NC(=O)[C@H](Cc1ccccc1)NC(=O)[C@@H](N)Cc1ccccc1)C(=O)OC1=CC[C@H]2[C@H]3Cc4ccc(O)c5c4[C@@]2(CCN3C)[C@H]1O5` [FFI-HM]: in data set [1], the “IN AUC %” value is 79% and the “IN Cmax %” value was 92%. For the same compound, in data set [2], the “Oral AUC %” value was 18% and the “Oral Cmax %” value worked out at 47%.

Consider `CC(C)C[C@H](NC(=O)[C@H](Cc1ccccc1)NC(=O)[C@@H](N)Cc1ccccc1)C(=O)OC1=CC[C@H]2[C@H]3Cc4ccc(O)c5c4[C@@]2(CCN3C)[C@H]1O5` [FFL-HM], for which, in data set [1], the “IN AUC %” value amounted to 92% and the “IN Cmax %” value is reported as 96%. In data set [2], the “Oral AUC %” value is 11% and the “Oral Cmax %” value is given as 24%.

Consider `CC(C)[C@H](NC(=O)[C@H](Cc1ccccc1)NC(=O)[C@@H](N)Cc1ccccc1)C(=O)OC1=CC[C@H]2[C@H]3Cc4ccc(O)c5c4[C@@]2(CCN3C)[C@H]1O5` [FFV-HM], for which, in data set [1], the “IN AUC %” value was found to be 98% and the “IN Cmax %” value worked out at 103%. For the same compound, in data set [2], the “Oral AUC %” value came to 8% and the “Oral Cmax %” value turned out to be 36%.

Take `CC[C@H](C)[C@H](NC(=O)CNC(=O)CN)C(=O)OC1=CC[C@H]2[C@H]3Cc4ccc(O)c5c4[C@@]2(CCN3C)[C@H]1O5` [GGI-HM]: in data set [1], the “IN AUC %” value is recorded as 24% and the “IN Cmax %” value is listed as 66%. For the same compound, in data set [2], the “Oral AUC %” value was found to be 17% and the “Oral Cmax %” value is recorded as 32%.

Take `CC(C)C[C@H](NC(=O)CNC(=O)CN)C(=O)OC1=CC[C@H]2[C@H]3Cc4ccc(O)c5c4[C@@]2(CCN3C)[C@H]1O5` [GGL-HM]: in data set [1], the “IN AUC %” value was found to be 52% and the “IN Cmax %” value came to 85%. Moreover, in data set [2], the “Oral AUC %” value is 22% and the “Oral Cmax %” value came out at 43%.

As for `CC(C)[C@H](NC(=O)CNC(=O)CN)C(=O)OC1=CC[C@H]2[C@H]3Cc4ccc(O)c5c4[C@@]2(CCN3C)[C@H]1O5` [GGV-HM], in data set [1], the “IN AUC %” value is given as 51% and the “IN Cmax %” value is listed as 73%. Moreover, in data set [2], the “Oral AUC %” value was found to be 53% and the “Oral Cmax %” value turned out to be 63%.

On to `CC[C@H](C)[C@H](NC(=O)[C@H](CCCCN)NC(=O)[C@@H](N)CCCCN)C(=O)OC1=CC[C@H]2[C@H]3Cc4ccc(O)c5c4[C@@]2(CCN3C)[C@H]1O5` [KKI-HM], for which, in data set [1], the “IN AUC %” value turned out to be 68% and the “IN Cmax %” value is on record as 85%. In data set [2], the “Oral AUC %” value was found to be 24% and the “Oral Cmax %” value came out at 56%.

On to `CC(C)C[C@H](NC(=O)[C@H](CCCCN)NC(=O)[C@@H](N)CCCCN)C(=O)OC1=CC[C@H]2[C@H]3Cc4ccc(O)c5c4[C@@]2(CCN3C)[C@H]1O5` [KKL-HM], for which, in data set [1], the “IN AUC %” value is reported as 87% and the “IN Cmax %” value was 96%. In addition, in data set [2], the “Oral AUC %” value came to 24% and the “Oral Cmax %” value came out at 50%.

With `CC(C)[C@H](NC(=O)[C@H](CCCCN)NC(=O)[C@@H](N)CCCCN)C(=O)OC1=CC[C@H]2[C@H]3Cc4ccc(O)c5c4[C@@]2(CCN3C)[C@H]1O5` [KKV-HM], in data set [1], the “IN AUC %” value stood at 75% and the “IN Cmax %” value was found to be 89%. For the same compound, in data set [2], the “Oral AUC %” value came to 43% and the “Oral Cmax %” value is listed as 60%.

Turning to `CC[C@H](C)[C@H](NC(=O)[C@@H]1CCCN1C(=O)[C@@H]1CCCN1)C(=O)OC1=CC[C@H]2[C@H]3Cc4ccc(O)c5c4[C@@]2(CCN3C)[C@H]1O5` [PPI-HM], in data set [1], the “IN AUC %” value was found to be 77% and the “IN Cmax %” value worked out at 95%. For the same compound, in data set [2], the “Oral AUC %” value is on record as 21% and the “Oral Cmax %” value is on record as 60%.

Consider `CC(C)C[C@H](NC(=O)[C@@H]1CCCN1C(=O)[C@@H]1CCCN1)C(=O)OC1=CC[C@H]2[C@H]3Cc4ccc(O)c5c4[C@@]2(CCN3C)[C@H]1O5` [PPL-HM], for which, in data set [1], the “IN AUC %” value is listed as 53% and the “IN Cmax %” value is 70%. Besides, in data set [2], the “Oral AUC %” value came to 22% and the “Oral Cmax %” value worked out at 45%.

Take `CC(C)[C@H](NC(=O)[C@@H]1CCCN1C(=O)[C@@H]1CCCN1)C(=O)OC1=CC[C@H]2[C@H]3Cc4ccc(O)c5c4[C@@]2(CCN3C)[C@H]1O5` [PPV-HM]: in data set [1], the “IN AUC %” value was determined as 71% and the “IN Cmax %” value came to 101%. In addition, in data set [2], the “Oral AUC %” value stood at 24% and the “Oral Cmax %” value is listed as 55%.

As to `CC[C@H](C)[C@H](NC(=O)[C@H](Cc1ccccc1)NC(=O)[C@H](Cc1ccccc1)NC(=O)[C@H](Cc1ccc(O)cc1)NC(=O)[C@@H](N)Cc1ccc(O)cc1)C(=O)OC1=CC[C@H]2[C@H]3Cc4ccc(OC(C)=O)c5c4[C@@]2(CCN3C)[C@H]1O5` [YYFFI-HM-OAc] (H-YYFFI-X5), in data set [1], the “IN AUC %” value is 59% and the “IN Cmax %” value was found to be 72%. Moreover, in data set [2], the “Oral AUC %” value is 29% and the “Oral Cmax %” value is 40%.

For the compound `CC[C@H](C)[C@H](NC(=O)[C@H](Cc1ccccc1)NC(=O)[C@H](Cc1ccccc1)NC(=O)[C@H](Cc1ccc(O)cc1)NC(=O)[C@@H](N)Cc1ccc(O)cc1)C(=O)OC1=CC[C@H]2[C@H]3Cc4ccc(O)c5c4[C@@]2(CCN3C)[C@H]1O5` [YYFFI-HM] (H-YYFFI-X2), in data set [1], the “IN AUC %” value turned out to be 4% and the “IN Cmax %” value stood at 7%. In addition, in data set [2], the “Oral AUC %” value was found to be 40% and the “Oral Cmax %” value was determined as 52%.

Consider `CC[C@H](C)[C@H](NC(=O)[C@H](Cc1ccc(O)cc1)NC(=O)[C@@H](N)Cc1ccc(O)cc1)C(=O)OC1=CC[C@H]2[C@H]3Cc4ccc(O)c5c4[C@@]2(CCN3C)[C@H]1O5` [YYI-HM], for which, in data set [1], the “IN AUC %” value came out at 88% and the “IN Cmax %” value was 86%. In addition, in data set [2], the “Oral AUC %” value is on record as 32% and the “Oral Cmax %” value was 66%.

On to `CC(C)C[C@H](NC(=O)[C@H](Cc1ccc(O)cc1)NC(=O)[C@@H](N)Cc1ccc(O)cc1)C(=O)OC1=CC[C@H]2[C@H]3Cc4ccc(O)c5c4[C@@]2(CCN3C)[C@H]1O5` [YYL-HM], for which, in data set [1], the “IN AUC %” value came out at 74% and the “IN Cmax %” value is 75%. In data set [2], the “Oral AUC %” value is given as 12% and the “Oral Cmax %” value was found to be 30%.

Turning to `CC(C)[C@H](NC(=O)[C@H](Cc1ccc(O)cc1)NC(=O)[C@@H](N)Cc1ccc(O)cc1)C(=O)OC1=CC[C@H]2[C@H]3Cc4ccc(O)c5c4[C@@]2(CCN3C)[C@H]1O5` [YYV-HM], in data set [1], the “IN AUC %” value was determined as 73% and the “IN Cmax %” value worked out at 73%. In data set [2], the “Oral AUC %” value was 30% and the “Oral Cmax %” value is reported as 53%.
